{"source": "paper doi:10.1101/067827", "about": "(bioRxiv, 2016)", "molecular_target": "the molecule itself", "assay": "SEC", "data": [{"protein": "MCAK-His6 (purified full-length MCAK) (enzyme, UniProt Q99661 1-725, looked up) MAMDSSLQARLFPGLAIKIQRSNGLIHSANVRTVNLEKSCVSVEWAEGGATKGKEIDFDDVAAINPELLQLLPLHPKDNLPLQENVTIQKQKRRSVNSKIPAPKESLRSRSTRMSTVSELRITAQENDMEVELPAAANSRKQFSVPPAPTRPSCPAVAEIPLRMVSEEMEEQVHSIRGSSSANPVNSVRRKSCLVKEVEKMKNKREEKKAQNSEMRMKRAQEYDSSFPNWEFARMIKEFRATLECHPLTMTDPIEEHRICVCVRKRPLNKQELAKKEIDVISIPSKCLLLVHEPKLKVDLTKYLENQAFCFDFAFDETASNEVVYRFTARPLVQTIFEGGKATCFAYGQTGSGKTHTMGGDLSGKAQNASKGIYAMASRDVFLLKNQPCYRKLGLEVYVTFFEIYNGKLFDLLNKKAKLRVLEDGKQQVQVVGLQEHLVNSADDVIKMIDMGSACRTSGQTFANSNSSRSHACFQIILRAKGRMHGKFSLVDLAGNERGADTSSADRQTRMEGAEINKSLLALKECIRALGQNKAHTPFRESKLTQVLRDSFIGENSRTCMIATISPGISSCEYTLNTLRYADRVKELSPHSGPSGEQLIQMETEEMEACSNGALIPGNLSKEEEELSSQMSSFNEAMTQIRELEEKAMEELKEIIQQGPDWLELSEMTEQPDYDLETFVNKAESALAQQAKHFSALRDVIKALRLAMQLEEQASRQISSKKRPQ", "values": [{"measurement": "stoichiometry N", "result": 2}]}]}
